Reference: US20240336909A1 (HARPOON THERAPEUTICS, published 2024)

Experiments:
cynomolgus EpCAM protein = target: T1, cynomolgus EpCAM protein (cynomolgus monkey); assay: colorimetric ELISA
T1 construct: biotinylated in the Octet assays; also called cy EpCAM; cynomolgus monkey EpCAM
Description: (§1) Llamas were immunized with purified EpCAM protein expressed in Expi293 cells. A phage display library for expression of heavy variable antibody domains was constructed from circulating B cells. See van der Linden, de Geus, Stok, Bos,van Wassenaar, Verrips, and Frenken. 2000. J Immunol Methods 240:185-195. Phage clones were screened for binding to EpCAM by expressing anti-EpCAM proteins in E coli, preparing periplasmic extracts, and proteins were screened for human and cynomolgus EpCAM binding activity using a colorimetric ELISA.

human EpCAM protein = target: T2, human EpCAM protein (human, UniProt P16422 24-265); assay: colorimetric ELISA
T2 construct: biotinylated in the Octet assays; also called hu EpCAM; biotinylated human EpCAM protein
T2 sequence (looked up): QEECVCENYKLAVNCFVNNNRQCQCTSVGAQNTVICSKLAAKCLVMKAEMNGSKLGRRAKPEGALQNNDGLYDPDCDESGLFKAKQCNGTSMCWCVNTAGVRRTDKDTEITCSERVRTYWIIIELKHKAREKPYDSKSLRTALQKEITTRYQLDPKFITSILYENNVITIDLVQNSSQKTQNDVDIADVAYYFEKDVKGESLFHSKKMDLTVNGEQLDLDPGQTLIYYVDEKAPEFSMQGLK
Description: as §1

T1 sequence (Q1WER1 24-265): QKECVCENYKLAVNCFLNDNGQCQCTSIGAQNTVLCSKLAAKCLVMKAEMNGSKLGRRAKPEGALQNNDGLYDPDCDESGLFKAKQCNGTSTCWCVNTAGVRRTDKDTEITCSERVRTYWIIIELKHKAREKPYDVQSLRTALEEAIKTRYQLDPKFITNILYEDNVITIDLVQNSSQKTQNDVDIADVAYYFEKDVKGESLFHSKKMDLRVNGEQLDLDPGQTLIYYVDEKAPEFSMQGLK

Row | Binder | Cynomolgus EpCAM/Control (cynomolgus EpCAM protein) | ELISA absorbance (cynomolgus EpCAM protein) | ELISA absorbance (human EpCAM protein) | Human EpCAM/Control (human EpCAM protein)
1 | Llama anti-EpCAM single domain antibody EPL152 (VHH, E. coli periplasmic extract) VHH: QVQLQESGGGLVQAGGSLRLSCVHSGSIFRASTMAWYRQAPGKQRELVAQIMSGGGTNYAGSVKGRFTISRDNANNTVYLQMNSLKPEDTAVYYCNAAQITSWGPKVYWGQGTQVTVSS | 4 ratio | 2.8 absorbance | 3.4 absorbance | 4 ratio
2 | Llama anti-EpCAM single domain antibody EPL120 (VHH, E. coli periplasmic extract) VHH: QVQLQESGGGLVQAGGSLRLSCAASGFIFRAASISWYRQSPGNERELVATINSGGFTNYADSVLGRFTISRDNAKNTGYLQMNSLKPEDTAVYFCAATFLRSDGQPPIWGQGTQVTVSS | 4 ratio | 2.3 absorbance | 3.2 absorbance | 5 ratio
3 | Llama anti-EpCAM single domain antibody EPL13 (VHH, E. coli periplasmic extract) VHH: QVQLQESGGGLVQPGGSLRLSCAASGFAFGNHWMYWYRQAPGRGRELVASISSGGSTNYVDSVKGRFTISRDNARNTVYLQMYSLKPEDTAVYYCGTSDNWGQGTQVTVSS | 23 ratio | 4 absorbance | 2.9 absorbance | 17 ratio
4 | Llama anti-EpCAM single domain antibody EPL129 (VHH, E. coli periplasmic extract) VHH: QVQLQESGGGLVQAGGSLRLSCAASGFAFGNHWMYWYRQAPGRGRELVASISSGGSTNYVDSVKGRFTISRDNARNTVYLQMYSLRPEDTAVYYCGTSDNWGQGTQVTVSS | 29 ratio | 3.1 absorbance | 2 absorbance | 20 ratio
5 | Llama anti-EpCAM single domain antibody EPL83 (VHH, E. coli periplasmic extract) VHH: QVQLQESGGGLVQAGGSLRLSCAVSGSIFSLNTLAWYRQAPGRQRDLIARITGGGTTVYADSVKGRFTISRDNAKNTVYLQMNSLKPEDTAVYYCNLMVRHPSGSTYEYWGQGTQVTVSS | 2 ratio | 1.1 absorbance | 2 absorbance | 3 ratio
6 | Llama anti-EpCAM single domain antibody EPL127 (VHH, E. coli periplasmic extract) VHH: QVQLQESGGGLVQAGGSLRLSCAAPGFAFNDHAILWFRQAPGKEREGVSEICRDGTTYYTDSVKGRFTISSDNAKNTVYLQMNSVKTDDTAVYYCAVDRRRYYCSGNRAFSSDYYYWGQGTQVTVSS | 11 ratio | 0.9 absorbance | 0.4 absorbance | 5 ratio
7 | Llama anti-EpCAM single domain antibody EPL86 (VHH, E. coli periplasmic extract) VHH: QVQLQESGGGLVQPGGSLRLSCAASGFTFSDWAMSWVRQAPGKGLEWVSGIHYGDHTTHYADFVKGRFTISRDDAKNTLYLQMNSLKPEDTAVYYCARGSTKGQGTQVTVSS | 31 ratio | 3 absorbance | 0.8 absorbance | 8 ratio
8 | Llama anti-EpCAM single domain antibody EPL153 (VHH, E. coli periplasmic extract) VHH: QVQLQESGGGLVQPGGSLRLSCAASGFTFSDWAMSWVRQAPGKGLEWVSSIHYGDHTTHYADFVKGRFTISRDDAKNTLYLQMNSLKPEDTAVYYCEKGTTRGQGTQVTVSS | 21 ratio | 2.2 absorbance | 3.1 absorbance | 31 ratio
9 | Llama anti-EpCAM single domain antibody EPL31 (VHH, E. coli periplasmic extract) VHH: QVQLQESGGGLVHTGGSLRLSCAASGDTFLRYAMGWFRQAPGKEREFVAAITWNGGNTDYAGSLKGRFTISRDNTKNTVYLQMNSLKPEDTAVYYCAADLTFGLASSHYQYDYWGQGTQVTVSS | 6 ratio | 0.5 absorbance | 0.6 absorbance | 7 ratio
10 | Llama anti-EpCAM single domain antibody EPL136 (VHH, E. coli periplasmic extract) VHH: QVQLQESGGGLVQPGGSLRLSCAASGDTFLRYAMGWFRQAPGKEREFVAAITWNGGNTDYAGSLKGRFTISRDNTKNTVYLQMNSLKPEDTAVYYCAADLTFGLASSHYQYDYWGQGTQVTVSS | 13 ratio | 1.3 absorbance | 0.9 absorbance | 9 ratio
11 | Llama anti-EpCAM single domain antibody EPL55 (VHH, E. coli periplasmic extract) VHH: QVQLQESGGGLVQAGGSLRLSCAASGDTFLRYAMGWFRQAPGKEREFVAAITWNGGNTDYAGSLKGRFTISRDNTKNTVYLQMNSLKPEDTAVYYCAADLTFGLASSHYQYDYWGQGTQVTVSS | 7 ratio | 0.6 absorbance | 0.4 absorbance | 5 ratio
12 | Llama anti-EpCAM single domain antibody EPL57 (VHH, E. coli periplasmic extract) VHH: QVQLQESGGGLVHTGGSLRLSCAFSGDTFLRYAMGWFRQAPGKEREFVAAITWNGGNTDYADSLKGRFTISRDNTKNTVYLQMNSLRPEDTAVYYCAADLTFGLASSHYQYDYWGQGTQVTVSS | 27 ratio | 3.4 absorbance | 1.7 absorbance | 14 ratio
13 | Llama anti-EpCAM single domain antibody EPL117 (VHH, E. coli periplasmic extract) VHH: QVQLQESGGGLVQAGGSLRLSCAASGNIVRMTNMAWYRQAPGKQREFVATISAGGSTTYVDSVKDRFTISRDNTKNTVYLQMNYLKPEDTAVYYCATGSILTNRGAIPGSWGHGTQVTVSS | 3 ratio | 0.6 absorbance | 0.9 absorbance | 4 ratio
14 | Llama anti-EpCAM single domain antibody EPL20 (VHH, E. coli periplasmic extract) VHH: QVQLQESGGGLVQAGGSLKLSCAASGNVFRAATMAWYRQAPEKQREMVATIASGGTTNYADFVKGRFTISRDNAKNTVYLQMNTLKPEDTAVYYCNAGYLTSLGPKNYWGQGTQVTVSS | 4 ratio | 2.2 absorbance | 2.9 absorbance | 6 ratio
15 | Llama anti-EpCAM single domain antibody EPL125 (VHH, E. coli periplasmic extract) VHH: QVQLQESGGGLVQAGGSLRLSCAASGNVFRAATMAWYRQVPEKQREMVATIASGGTTNYADFVKGRFTISRDNAKNTVYLQMNTLKPEDTAVYYCNALYLTSLGPKSYWGQGTQVTVSS | 8 ratio | 3.5 absorbance | 3.5 absorbance | 8 ratio
16 | Llama anti-EpCAM single domain antibody EPL189 (VHH, E. coli periplasmic extract) VHH: QVQLQESGGGLVQPGGSLRLSCAASGRINSINTMGWYRQAPGNQRELVAEITRGGTTNYADSVQGRYAISRDNAKNLVYLQMNSLKPEDTDVYYCNAQTFPTFSRPTGLDYWGQGTQVTVSS | 8 ratio | 0.9 absorbance | 1.3 absorbance | 12 ratio
17 | Llama anti-EpCAM single domain antibody EPL97 (VHH, E. coli periplasmic extract) VHH: QVQLQESGGGLVQAGGSLRLSCAASGIIFRGTTMGWFRQAPGKQRESVASISPLGTTSYSGSVEGRFTVSRDNAKNTLFLQMNSLKSEDTAVYYCNAIQVTNVGPRVYWGQGTQVTVSS | 5 ratio | 1.7 absorbance | 2.5 absorbance | 8 ratio
18 | Llama anti-EpCAM single domain antibody EPL15 (VHH, E. coli periplasmic extract) VHH: QVQLQESGGGSVLAGGSLRLSCAASGFTFSSYYMSWVRQAPGKGLEWVSGIHYTGDWTNYADSVKGRFTISRDNAKNELYLEMNNLKPEDTAVYYCARGSDKGQGTQVTVSS | 35 ratio | 3.2 absorbance | 0.7 absorbance | 8 ratio
19 | Llama anti-EpCAM single domain antibody EPL34 (VHH, E. coli periplasmic extract) VHH: QVQLQESGGGSVQAGGSLRLSCAASGFTFSSYYMSWVRQAPGKGLEWVSGIHYTGDWTNYADSVKGRFTISRDNAKNELYLEMNNLKPEDTAVYYCARGSDKGQGTQVTVSS | 36 ratio | 3.1 absorbance | 0.9 absorbance | 10 ratio
20 | Llama anti-EpCAM single domain antibody EPL109 (VHH, E. coli periplasmic extract) VHH: QVQLQESGGGLVQPGGSLRLSCASSGFTLDDYTIGWFRQAPGKEREGVSCISRRDDSTYYADSVKGRFTISRDNAKNTVDLQMISLRPEDTAVYYCAATPRSYTLRCLGKFDFQGQGTQVTVSS | 2 ratio | 0.1 absorbance | 0.4 absorbance | 5 ratio
21 | Llama anti-EpCAM single domain antibody EPL82 (VHH, E. coli periplasmic extract) VHH: QVQLQESGGGLVQAGGSLKLSCTASGTILSTMAWYRQAPGKQRELVATISRGGTTNYSDSVKGRFAISRDSTKNTVYLQMNSLKPEDTAVYYCNTPLTDYGMGYNWGQGTQVTVSS | 5 ratio | 1.1 absorbance | 0.9 absorbance | 4 ratio
